The record followed here is patent US20090269346A1.

Test [1] deals with GFRα-1. Kind of test: solid-phase assay (ELISA): RAP-GDNF concentration varied on GFRalpha-1, OD 450 nm; per paragraph 304 GFRalpha-1 coated on the plate and bound protein detected with anti-GDNF mAb.
For test [2], the target named is GFRα-1. Put plainly: solid-phase binding assay (FIG. 11).
For the next test, the target named is LRP1 CR3-5 (human). Put plainly: solid-phase assay, coated CR protein, RAP-IDU detected by iduronidase activity.
Chain of LRP1 CR3-5 (human) (Q07954 852-973): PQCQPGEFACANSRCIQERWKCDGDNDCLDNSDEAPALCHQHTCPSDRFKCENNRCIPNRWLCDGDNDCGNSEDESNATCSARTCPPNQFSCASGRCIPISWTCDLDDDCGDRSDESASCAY
Another test concerns the target LRP2 CR3435 (human) (UniProt P98164). Put plainly: solid-phase assay: CR protein coated on the plate, RAP-IDU titrated, bound iduronidase activity read as rfu.
Test [3] deals with LRP2 CR89 Y1042W V1047D (human) (UniProt P98164). Kind of test: solid-phase assay, coated CR protein, anti-RAP, OD450.
Chain of LRP2 CR89 Y1042W V1047D (human) (P98164 1022-1105 Y1043W/V1048D limits assumed): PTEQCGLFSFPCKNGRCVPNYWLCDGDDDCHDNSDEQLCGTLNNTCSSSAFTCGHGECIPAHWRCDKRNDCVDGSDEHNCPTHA

As a reminder, the EC50 (read off the curve) is the concentration that produces a half-maximal response. High values mean a less potent agent, low ones a more potent agent. One may read the Kd as the free concentration of one partner at which half of the binding sites on the other are occupied at equilibrium, for simple one-to-one binding.

Consider “RAP-GDNF fusion protein (from UniProt P39905 78-211)”, for which, in the test with GFRα-1 [1], the EC50 (read off the curve) amounted to 2 ng/mL. This substance had a dissociation constant (Kd) in the test with GFRα-1 [2] of 5 ng/mL.
On to “RAP-IDU (fusion of RAP and human α-L-iduronidase) (from UniProt P35475 28-653)”, for which the results for the equilibrium dissociation constant (Kd) with LRP1 CR3-5 (human) and in the test with LRP2 CR3435 (human) were 3 nM and 722 nM, respectively.
Turning to “wild-type RAP d3 (from UniProt P30533 235-353) (ligand)”, the % max bind in test [3] came to 11%.
